In a protein production outcome set (Wang et al. 2014):

Assay: label from the status in PepcDB records

Sequence | protein production
MIRNPKIYIIILNYNAYEDTLECVKSIGNIDYDNYELVLVDNSSTDDSYVKLKESLPSYNIIKSKENLGYANGNNIGIKYALENGADYICILNNDVVVEKDFLNKLVDKIIEKEDVGIVGSCICDYYRREIIQGMGAHINLYFAAARRYFKGKNYNEIEKKDIFVDYLEGACFLVKSEVFEKIGLIPENYFLFFEETEFCTRAINAGYKIMCIYESKVYHKGSATINKFGSLSYAYLNRNRVIFVRRNSKWYQKIIFAIYIFIEAFGRIVIRKEPLTLFKYILGGFKSNKESIDVIDVKSYVKLEHHHHHH | failed
MHVVQGAKTMWNKIQVVSHGRGGLRSQCCETTMIGHPTPTPAQDSETQPSPQEHIPEKKPLPKEIGGRDGPEPTRYGDWEKNGRCIDFLEHHHHHH | failed
PPLYVPEQLVVHKETHQAHVMIGSRGYNAYDDKRTALYLLNNILGGPGMNSRLNVSLRERRGLVYTVESNLTSYTDTGAFCIYFGTDPEDVDTCLKLTYKELKRMRDVKMTSSQLMAAKKQLIGQIGVASDNNENNALGMAKTFLHYNKYESSESVFRRIEALTAEGLLEVANEMFAEEYLSTLIY | failed
SGHPPLEFSDCYLDSPDFRERLKCYEQELERTNKFIKDVIKDGNALISAMRNYSSAVQKFSQTLQSFQFDFIGDTLTDDEINIAESFKEFAELLNEVENERMMMVHNASDLLIKPLENFRKEQIGFTKERKKKFEKDGERFYSLLDRHLHLSSKKKESQLQEADLQVDKERHNFFESSLDYVYQIQEVQESKKFNIVEPVLAFLHSLFISNSLTVELTQDFLPYKQQLQLSLQNTRNHFSSTREEMEELKKRMKEAPQTCKLPGQPTIEGYLYTQEKCVWGHRGIHWVSISQELLPLVGCEFWAPLLFIDP | not failed
MIDNIIRKKWMLKHVRVIVPLLVLLFSLLLTVFVVYTAYSLQLRHNRTLLENLADRQTMALQQFVDGDIHFIGSAANFFRSSTSDDWVRFHTFAEETLKGSQSLIALQWLVKVEPPQAETFTARMQQRFPEFTLYTVPKTGEIKYGFGTDDQAKYVLSDIYPLNYDNRKLLGFYSERERFKRILADIVVNRRPNVSDKVRLLQDGIDKSIVKDGMLVYHPVFSSEDDRSLLGVMVGVVRLSTYFEKLVQISVMEQDLDMRVIDTGFDSEDSPVLYQSPMWRADDEPKIERKLVLPNRDWVLEFELHQPINHSEEWVLLGLGLGGVIISLLLSYIMRMQLEEKQRLTDMIEERTAELRYLVEHDSLTNIYNRRFFSQHLCKMLDEKQSFTLISFDIDRFKQINDSYGHLAGDYALTHVVDVVKKELVESDIFARFGGDEFAILSSVTDETALYTYLERIRKVVEAEPVMLNAETPLTLTISIGASINCEYSEPEILQSVDDQLYLSKSKGRNRVSIAHNAAR | failed
MKLLLIGYGNVGKAFRRLLHEKKDNYPILQGVEIAGIITRQGLMVGDKENFSPDKQLTVLEAIDYINPDVIVDMSVPNYKDGEPSVSAYIKALSRKIHVITVNKAPLALKFREIFEVAEKTGAKIGFQGTVMSGTPSINLFRIQPVAEVSRIRGILNGTTNYILTRIYEGLSFNEALKEAKEKGYAEEDPTLDLNGFDAAAKLTILSNFIMNRSLKLGDFKFKGITEITNEEIRRAKSEGKKIKLIAYADNYVVQVSPQIIGPQDPLYYIDGVENALEIQNEIQRIIIRGPGAGPINAAYGALSDLVLLLEGCL | failed
GFAAYIWGSDFSFEVSAYAVAEREVPVADWVLRRIVPYRKCYGIDPEEFSSYRNAADSEIFMAYLDDQPVGHVVVSTNWNGYAHIDELAVHAPARRHGVARALLDVAQFWSRRKKLPGMMLETQNNNLGACRLYEQCGYVVGGVDHLRYRGIDPQTAEVAIFWYRLFANELE | failed
SLSLRPSPRLLCTATKQKNSGQNLEEDMGQSEQKADPPATEKTLLEEKVKLEEQLKETVEKYKRALADTENLRQRSQKLVEEAKLYGIQAFCKDLLEVADVLEKATQCVPKEEIKDDNPHLKNLYEGLVMTEVQIQKVFTKHGLLKLNPVGAKFDPYEHEALFHTPVEGKEPGTVALVSKVGYKLHGRTLRPALVGVVKEA | not failed
MGCAGSTQSQADGSVKKIRKPKPWKHTQPITKAELMKLREEFWDTAPHYGGRKEIWDALRAAAEADISLAQAIVDSAGVIVQNTDLTVCYDERGAKYELPKYVLSEPTNLEEEN | failed
MIISLIAALAADRVIGMENAMPWHLPADLAWFKRNTLNKPVIMGRKTFESIGRPLPGRLNIVISSQPGTDERVTWAASIEEALAFAGNAEEVMVMGGGRVYKQFLDRANRMYLTHIDAEVGGDTHFPDYEPDEWESVFSEFHDADEANSHSYCFEILERR | not failed
VKNGNDTRMTLLNNWESTYFDFDENKLIGLMDEATKLGVDMFLLDDGWFANKYPRSSDHQGLGDWEETADKLPNGVGRLVEEAQKKGIKFGIWIEPEMVNPKSELYEKHKDWVIHLPNRDEYYFRNQMVLDLSNPKVQDHVFGVVDNLMTKYPGIAFFKWDCNSPITNIYSVYLKDKQSHLYVDYVRGLYKVLDRIKAKYPNLPMMLCAGGGGRSDYEALKYFTEFWPSDNTDPIERLFIQWGYSQIFPSKTLCAHVTTWNRGTSIKFRTDVAMMCKLGFDIKLEDMNQNEHLYCDQAVKNYNRLKPVILEG | failed
MRVLVIGATGHVGTYLVPRLVEAGHDVVTISRGAARPYTADRAWASVDQRQMDRVEMERKGDFGPAMRALNADIVIDMICFTLESAEQLVTALSGYVGHFLHTGTIWTHGYPVAVPTREEAPKSPFGDYGIQKAAIETYLLQQARLRGFPATIIHPGHIVGRGWAPLNPAGNFNLQVFSTLARGEALALPNFGLETVHHVHADDVAAMFMDAIANRNASLGESFHAVSEQALTLRGYAESMSRWFGRDPKLTFAPFDAWARGQAAEDAEATWEHIARSPNCSIAKARRLLGYGPRYTSLQAVQESVGWLLGQGRIKS | failed
MSLSSVKDFPKIKAIRSFIIGGVGSGGDYHNVKGGHWLIDSDISTPASKWEQYKKSRTSWGINVLGSFLVEIEATDGTVGFATGFGGPPACWLVHQHFERFLIGADPRNTNLLFEQMYRASMFYGRKGLPIAVISVIDLALWDLLGKVRNEPVYRLIGGATKERLDFYCTGPEPTAAKAMGFWGGKVPLPFCPDDGHEGLRKNVEFLRKHREAVGPDFPIMVDCYMSLNVSYTIELVKACLDLNINWWEECLSPDDTDGFALIKRAHPTVKFTTGEHEYSRYGFRKLVEGRNLDIIQPDVMWLGGLTELLKVAALAAAYDVPVVPHASGPYSYHFQISQPNTPFQEYLANSPDGKSVLPVFGDLFIDEPIPTKGYLTTADLDKPGFGLTINPAARAKLIPSDYLFKVPEIPQNLSTGKEIKSNEQPDKPNGTLDSLAAKVESLTTSTSSEGHHHHHH | not failed
MVRKLRHFGDRLREEPDKFRFVLSRALWVTGLCRLITFSFPAGYRMRFYPSAISAGLWRDRNFRSEDADFVAGYLRPGETFVDVGANVGQLSLVAARRVTSSGRTIAIEAHPRTCNFLRGNVRLNGLPIEIHNVAVGSECGELFFTNFRSDDMNFAYAASPRNGSALRVPVATLDSIIGERPVDLLKVDVEGFECDLLRGAAQTLHNCRCLYIEDSEPNLRRAGSSRVELYDRLSEGGFELFHVRGKRLERVSVQAAGPLTENLIAVRGSDLPDALARTGFCLA | failed
MPSFDIVSEITLHEVRNAVENANRVLSTRYDFRGVEAVIELNEKNETIKITTESDFQLEQLIEILIGSCIKRGIEHSSLDIPAESEHHGKLYSKEIKLKQGIETEMAKKITKLVKDSKIKVQTQIQGEQVRVTGKSRDDLQAVIQLVKSAELGQPFQFNNFRD | not failed
MEEDVPEAEKLMCPKEVVEKNKDKQEEEEDEKGAKGGILNNLISNFMDCTTTTVEGKSSENIQKSLCEDEDEKEQESPSVGILEKIISHLPEDVAPTTDEAAILIHSAID | failed
MSNKIITLEINLEPSDNHRLASLCGPFDDNIKHLERRLGVEINYRGNFFTIVGQPHTAAAALDIIKTLYVETAPVRGQITDIEPEQIHLAIKESGVLEQHSESSIAHGKEVFVKTKKGVIKPRTPNQAQYLMNMVTHDITFGVGPAGTGKTYLAVAAAVDALERQEIRRILLTRPAVEAGEKLGFLPGDLSQKVDPYLRPLYDALFEMLGFERVEKLIERNVIEVAPLAYMRGRTLNDAFIILDESQNTTVEQMKMFLTRIGFNSRAVITGDVTQIDLPRGAKSGLRHAIEVLNEVDEISFNFFQADDVVRHPVVARIVNAYEKWEAQDQKERKEYEQRRREERENKLLEMQRAEMTLSHNNESNPS | failed
MDWYLKVLKNYVGFRGRARRKEYWMFILVNIIFTFVLGLLDKMLGWQRAGGEGILTTIYGILVFLPWWAVQFRRLHDTDRSAWWALLFLIPFIGWLIIIVFNCQAGTARRKPLWTRSKTGTLKQICSPDV | failed
MEETLATPDATRRSLSPSCSATVKSRAAGFERRTKRRLSETNASVREDREEAEEEEDEVKEKIEALQRIIPGGAALGVDALFEETAGYILSLQCQIKTIKVLTSFLQRIDQEDMKFGG | failed
MRLSAEQVVEVLRAAGESTRLRLLALLAAEELSVLELCRILDQSQPRVSRHLKLLAEAGLVERFPDGAWVFYRLAAKSPGRLLVEQALDLIDEGDETVQSDADKLAAVRAERSTDAQAYFARNAARWNEIRSLYVDEAEVEAAILRATGEGPFDEMVDLGAGAGRMLTLLGKRAANALGLDLSQQMLNIARDEVSKAGLTACELRHGDIFRTGLPGGCADLVTVHQVLHYLTDPATAVAEAARLVTPGGLLLIADFAPHGHEFLREVHQHRRLGFDDAEIVAWLQAAGLVLESNIALPPATAEGLTVKIWTARRPGKASLERSAA | failed
MSQLLKLKSQYDDECTVTRHYEGKGRNAGRLGAVGCKNRHGEFRIGSGFKDKDRDNPPKIGTLITYRYRGFTRKGTPKFATFVRVRTLEHHHHHH | failed
MHMKTVRQERLKSIVRILERSKEPVSGAQLAEELSVSRQVIVQDIAYLRSLGYNIVATPRGYVLAGGKSGVSRLVAVKHAPEEIKEELLCVVRNGGRIVDVIVEHPVYGEIRGIIDVSSEEEVLKFVNLMEMAKTEPLLTLSGGVHLHTIEAPDEETMERIMRELKKKGFLIEEG | not failed
MKVLRLGIVFQLLFVLLLTVGNFARIFIIDHYSVYPIAFFELFLGIGSLSCGVYGLIKTEKPILSLWLICFGLLICVFFIVVYLLPEGDIPPEITWFYSE | failed
NAVHFGAGNIGRGFIGKLLADAEVEVTFADVDVPLVDQLSHKQEYKVKVVGTECKIDTVTHVTAVNSASEDVIDRIVKTDLVTTAVGPNVLDIIAKTIAKGIAKRFEAGNDAPLNIIACENMVRGTTHLKGEVYKHLDKSLHAKADELVGFVDSAVDRIVPPAEAANDDPLEVTVESFSEWIVDEQQFKGDIPNIAGMEKTNN | not failed
AADQVLELVRPFLEELRNISQETAVLGKRQDGQVIYLDVALSHQPIRYHVQVGESRAAHTNSIGKAIFPMLDEKEQKALLAKANWRALTSRTIATREAFLRDMAQTKARGWSSNVGESVEDLAAVALPFQLASEWYAVSIVGPYERMERNWDAHVETLLQTGARLRQAIAVHEGQ | failed
GWKVEYMAIADPQTIDQTPIVIVGGAFQNFNSYKYCVEQLFHCGPVILIDLPSMGANQQITNRDSGVSAAVLELPDLAKILVEWLDIIKIQKISMMGMSLGSVVASCFADLRPDMIDRLVLMGVMQKTRKSWRMILEESLKLMQENRMEEFGQAVILYLVNHAKLDQTRMSPTAKRLFFRQMAEFNPTERLRYEINCQRLLRLKDVPIPQCKTLVAAGQYDSFTLPFENANFALQCPDVEFALIANADHVPQLQRRKETMRLFETFLNH | failed
